The target in test [1] is C1q (of human serum) (human (endogenous in human serum)) (UniProt P02745).
For test [2], the target named is DHS-IgG3 (class-switched IgG3 variant of Trastuzumab, G3m16 allotype with H435, with the DHS mutations) (human). In words: SPR; antibody variants immobilised on CM5 chip (~500 RU, amine coupling); hFcRn:hβ2m dimer injected at serial dilutions (1000-40 nM) in PBS, pH 5.8, 30 μL/min; KD from steady-state isotherms or from kinetics with a 1:1 Langmuir mass transfer model. On the technique in general: Surface plasmon resonance follows binding to a sensor surface in real time, without labels.

For test [3], the target named is wt-IgG4 (class-switched IgG4 variant of Trastuzumab, wild-type Fc) (human). Described as above.
In test [4] the target is DHS-IgG4 (class-switched IgG4 variant of Trastuzumab with the DHS mutations) (human). The description is as above.
Test [5] concerns the target N434S-IgG1 (Trastuzumab IgG1 with N434S) (human). Described as above.
Test [6] addresses wt-IgG3 (class-switched IgG3 variant of Trastuzumab, G3m16 allotype with H435, wild-type Fc) (human). Described as above.
Test [7] concerns the target EDH-IgG1 (Trastuzumab IgG1 with V264E, L309D, Q311H) (human). Described as above.

Sequence of UniProt P02745 (P02745 23-245, chain 1 of 3): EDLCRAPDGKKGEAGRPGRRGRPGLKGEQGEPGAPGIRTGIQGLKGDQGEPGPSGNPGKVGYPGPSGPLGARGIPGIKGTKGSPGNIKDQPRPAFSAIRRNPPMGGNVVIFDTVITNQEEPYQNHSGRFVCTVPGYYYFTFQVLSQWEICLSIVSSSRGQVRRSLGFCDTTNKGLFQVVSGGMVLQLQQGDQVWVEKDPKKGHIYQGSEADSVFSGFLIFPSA
Sequence of UniProt P02745 (P02746 28-253, chain 2 of 3, further chain): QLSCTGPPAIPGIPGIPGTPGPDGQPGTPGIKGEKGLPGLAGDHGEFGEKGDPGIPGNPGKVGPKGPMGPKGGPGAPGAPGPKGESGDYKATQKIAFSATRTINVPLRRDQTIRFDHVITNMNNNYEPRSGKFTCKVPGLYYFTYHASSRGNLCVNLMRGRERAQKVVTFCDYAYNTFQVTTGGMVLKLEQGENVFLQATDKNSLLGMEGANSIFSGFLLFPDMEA
Sequence of UniProt P02745 (P02747 29-245, chain 3 of 3, further chain): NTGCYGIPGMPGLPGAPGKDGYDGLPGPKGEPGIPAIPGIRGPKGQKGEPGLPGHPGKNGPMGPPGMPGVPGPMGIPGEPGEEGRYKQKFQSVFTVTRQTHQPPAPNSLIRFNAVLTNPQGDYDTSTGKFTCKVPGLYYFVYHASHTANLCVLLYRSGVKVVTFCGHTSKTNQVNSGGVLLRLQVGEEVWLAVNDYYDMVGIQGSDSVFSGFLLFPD

Take “DHS-Rituximab IgG1 (anti-CD20 IgG1 with L309D/Q311H/N434S) (antibody)”: the CDC of Raji cells with 25% human serum against antibody concentration; potency (name of the quantity not given) in test [1] turned out to be 0.7 µg/mL.
On the same count and under the same terms, to “LS-Rituximab (anti-CD20 IgG1 with M428L/N434S) (antibody)” belongs 1.9 µg/mL.
On to “human FcRn/human β2m complex (hFcRn:hβ2m dimer) (from UniProt P55899 24-297; P61769 21-119)”, for which the Kd in test [2] came out at 739 nM; in test [3] it was 2460 nM; in test [4], 832 nM; in test [5], 220 nM; in test [6], 4080 nM; in test [7] it was 487 nM.

For orientation: Kd means the equilibrium constant for the complex coming apart. A higher Kd goes with lower affinity.

Source of the values: PMC6834678.
